# Experimental data reported in patent publication US20250180556A1 (ECOLE POLYTECHNIQUE FEDERALE DE LAUSANNE EPFL, published 2025).
# Tests used:
# [1] = molecular target: T1, glutathione S-transferase (GST)-HmtA chimeric construct, biotinylated in vivo (Methanobrevibacter smithii, biotinylated in vivo by bacteria at the N-terminus (GST) end); experiment: ELISA, biotinylated GST-HmtA immobilised on coated plates
# T1 construct: The construct was immobilised on coated polystyrene plates; also called GCJ construct; HmtA containing construct; not shown: glutathione S-transferase (GST)
# Experimental: (§1) The binding properties of all antibodies were tested by ELISA. A glutathione S-transferase (GST)-HmtA chimeric construct was prepared and further biotinylated in vivo by bacteria at the N-terminus (GST) end of the HmtA construct (GCJ construct). The construct was immobilized in coated polystyrene plates. A control chimeric GST construct (GCH) lacking HmtA was prepared, biotinylated and immobilized analogously.
# [2] = molecular target: T1, glutathione S-transferase (GST)-HmtA …; experiment: ELISA (figure legend)
# Experimental: as §1
# T1 sequence (chain, as listed by the source mutant): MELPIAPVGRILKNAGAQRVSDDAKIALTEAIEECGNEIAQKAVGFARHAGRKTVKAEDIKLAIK
Binder,binding result [1],binding result [2]
"scFv of monoclonal antibody mAb1 (N-VH-linker-VL-C) (scFv, Selected from the Tomlinson I,J human scFv library (pIT2 vector); also called scFv based on mAb1) scFv: EVQLVQSGAEVKKPGESLKISCKGSGYSFTSYWIGWVRQMPGKGLEWMGIIYPGDSDTRYSPSFQGQVTISADKSISTAYLQWSSLKASDTAMYYCARAGFRGYCSGGSCYRLPYWGQGTLVTVSSGGGGSGGGGSGGGGSTQSVLTQPPSVSAAPGQKVTISCSGSSSNIGNNYVSWYQQLPGTAPKLLIYDNNKRPSGIPDRFSGSKSGTSATLGITGLQTGDEADYYCGTWDVLAARSVFGGGTKLTVLG",binds,
"scFv of monoclonal antibody mAb2 (N-VH-linker-VL-C) (scFv, Selected from the Tomlinson I,J human scFv library (pIT2 vector); also called scFv based on mAb2) scFv: EVQLVQSGAEVKKPGESLKISCKGSGYSFTSYWIGWVRQMPGKGLEWMGIIYPGDSDTRYSPSFQGQVTISADKSISTAYLQWSSLKASDTAMYYCARLATGPHGIASAGRRYLDYWGQGTLVTVSSGGGGSGGGGSGGGGSTQSVLTQPPSVSAAPGQKVTISCSGSSSNIGNNYVSWYQQLPGTAPKLLIYDNNKRPSGIPDRFSGSKSGTSATLGITGLQTGDEADYYCGTWDSRGFGVFGGGTKLTVLG",binds,
"scFv of monoclonal antibody mAb5 (N-VH-linker-VL-C) (scFv, Selected from the Tomlinson I,J human scFv library (pIT2 vector); also called scFv based on mAb5) scFv: EVQLVQSGAEVKKPGESLKISCKGSGYSFTSYWIGWVRQMPGKGLEWMGIIYPGDSDTRYSPSFQGQVTISADKSISTAYLQWSSLKASDTAMYYCARAKVGQRYSSGRYFFDYWGQGTLVTVSSGGGGSGGGGSGGGGSTEIVLTQSPATLSLSPGERATLSCRASQSVSSYLAWYQQKPGQAPRLLIYDASNRATGIPARFSGSGSGTDFTLTISSLEPEDFAVYYCQQGAKDNPMTFGQGTKVEIKR",,binds
